US9949464

Target: green fluorescent protein (GFP), EGFP expressed from pCAG-GFP [GFP: P42212]
Assay: cell-based or functional assay

- induction of recombination of a floxed luciferase reporter in 293T cells: 20 to 60 fold
Substance: CRE-DOG (Cre-recombinase Dependent on GFP), GBP2+GBP7 combination: N-CreintG with C-CreintG
